Where a chain is given by its changes, count along the chain named.
Tests used:
MA-MADS5 full length (A) [1] = target: T1, MA-MADS5 full length (A) (Musa acuminata (AAA group, Cavendish …, UniProt E9NW24 1-243)); test: EMSA; EMSA with 2 ug recombinant protein or 15 ug nuclear extract, buffer by reference to earlier work; circularization pre-incubation: 60 mM KCl, 8 mM HEPES pH 7.9; settings: protein: recombinant, tags: 6xHis (pQE30), chain copies: 2, blunt
MA-MADS5 full length (A) [2] = target: T1, MA-MADS5 full length (A); test: EMSA; supershifted by anti-MA-MADS5; EMSA with 2 ug recombinant protein or 15 ug nuclear extract, buffer by reference to earlier work; circularization pre-incubation: 60 mM KCl, 8 mM HEPES pH 7.9; settings: protein: recombinant; tags: 6xHis (pQE30); chain copies: 2; label: 32P 5' end; blunt
MA-MADS5 D (MADS+I+K) = MA-MADS5 D (MADS+I+K) (Musa acuminata (AAA group, Cavendish …, UniProt E9NW24 1-183)); test: EMSA; EMSA with 2 ug recombinant protein or 15 ug nuclear extract, buffer by reference to earlier work; circularization pre-incubation: 60 mM KCl, 8 mM HEPES pH 7.9; settings: protein: recombinant; tags: 6xHis (pQE30); chain copies: 2; label: 32P; blunt
MA-MADS5 F (K+C) = MA-MADS5 F (K+C) (Musa acuminata (AAA group, Cavendish …, UniProt E9NW24 74-243)); test: as above; settings: protein: recombinant; tags: 6xHis (pQE30); label: 32P; blunt
MA-MADS5 C (MADS+I) = MA-MADS5 C (MADS+I) (Musa acuminata (AAA group, Cavendish …, UniProt E9NW24 1-73)); test: as above; settings: protein: recombinant; tags: 6xHis (pQE30); chain copies: 2; label: 32P; blunt
MA-MADS5 G (C-terminal) = MA-MADS5 G (C-terminal) (Musa acuminata (AAA group, Cavendish …, UniProt E9NW24 184-243)); test: as above; settings: protein: recombinant; tags: 6xHis (pQE30); label: 32P; blunt
MA-MADS5 E (I+K+C) = MA-MADS5 E (I+K+C) (Musa acuminata (AAA group, Cavendish …, UniProt E9NW24 61-243)); test: as above; settings: protein: recombinant; tags: 6xHis (pQE30); chain copies: 2; label: 32P; blunt
[3] = target: MA-MADS5 C (MADS+I);MA-MADS5 D (MADS+I+K) (Musa acuminata (AAA group, Cavendish …, UniProt E9NW24;E9NW24 1-73;1-183, |)); test: EMSA; intermediate-mobility dimer; EMSA with 2 ug recombinant protein or 15 ug nuclear extract, buffer by reference to earlier work; circularization pre-incubation: 60 mM KCl, 8 mM HEPES pH 7.9; settings: protein: recombinant;recombinant; tags: 6xHis (pQE30);6xHis (pQE30); copies: 1;1; label: 32P; blunt
[4] = target: MA-MADS5 full length (A);MA-MADS5 D (MADS+I+K) (Musa acuminata (AAA group, Cavendish …, UniProt E9NW24;E9NW24 1-243;1-183, |)); test: as above; settings: protein: recombinant;recombinant; tags: 6xHis (pQE30);6xHis (pQE30); copies: 1;1; label: 32P; blunt
[5] = target: MA-MADS5 full length (A);MA-MADS5 C (MADS+I) (Musa acuminata (AAA group, Cavendish …, UniProt E9NW24;E9NW24 1-243;1-73, |)); test: as above; settings: protein: recombinant;recombinant; tags: 6xHis (pQE30);6xHis (pQE30); copies: 1;1; label: 32P; blunt
Sequence of MA-MADS5 full length (A);MA-MADS5 C (MADS+I) (Musa acuminata (chain, as listed by the source |, chain 1 of 2): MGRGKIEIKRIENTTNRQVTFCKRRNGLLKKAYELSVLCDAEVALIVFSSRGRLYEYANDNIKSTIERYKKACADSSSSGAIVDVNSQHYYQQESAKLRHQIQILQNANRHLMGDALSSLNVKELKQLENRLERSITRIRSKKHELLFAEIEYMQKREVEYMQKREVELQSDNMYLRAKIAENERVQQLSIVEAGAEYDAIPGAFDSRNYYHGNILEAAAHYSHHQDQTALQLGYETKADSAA
Sequence of MA-MADS5 full length (A);MA-MADS5 C (MADS+I) (Musa acuminata (chain, as listed by the source |, chain 2 of 2): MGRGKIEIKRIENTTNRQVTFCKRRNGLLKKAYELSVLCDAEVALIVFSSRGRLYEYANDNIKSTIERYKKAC

Sequence of MA-MADS5 D (MADS+I+K) (Musa acuminata (E9NW24 entry or part of it): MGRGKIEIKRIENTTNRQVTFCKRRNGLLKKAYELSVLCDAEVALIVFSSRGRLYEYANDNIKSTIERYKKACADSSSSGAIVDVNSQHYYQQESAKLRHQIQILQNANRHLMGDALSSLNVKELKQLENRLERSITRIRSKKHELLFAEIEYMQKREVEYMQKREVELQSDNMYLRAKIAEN
Sequence of MA-MADS5 E (I+K+C) (Musa acuminata (E9NW24 entry or part of it): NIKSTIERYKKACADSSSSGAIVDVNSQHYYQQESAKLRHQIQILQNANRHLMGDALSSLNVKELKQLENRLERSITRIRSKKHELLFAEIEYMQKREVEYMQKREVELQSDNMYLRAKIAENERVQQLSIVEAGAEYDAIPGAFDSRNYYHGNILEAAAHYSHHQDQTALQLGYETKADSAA
Sequence of MA-MADS5 F (K+C) (Musa acuminata (E9NW24 entry or part of it): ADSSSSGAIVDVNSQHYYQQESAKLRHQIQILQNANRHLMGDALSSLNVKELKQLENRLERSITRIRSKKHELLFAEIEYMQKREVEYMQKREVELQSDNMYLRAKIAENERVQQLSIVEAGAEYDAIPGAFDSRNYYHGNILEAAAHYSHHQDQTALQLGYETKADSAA
Sequence of MA-MADS5 G (C-terminal) (Musa acuminata (E9NW24 entry or part of it): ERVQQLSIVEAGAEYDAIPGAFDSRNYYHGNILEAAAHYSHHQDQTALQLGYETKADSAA

B1: CArG motif 5 (MA-ACO1) (dsDNA)
DNA 1: GAGGTTGGCAATTTGTCACTAC
DNA 2: GTAGTGACAAATTGCCAACCTC
MA-MADS5 full length (A) [1]; label: 32P 5' end
  binding result: binds

B2: CArG motif 1 (MA-SPS) (dsDNA)
DNA 1: TTGGATTCTTATATGTCACGAA
DNA 2: TTCGTGACATATAAGAATCCAA
MA-MADS5 full length (A) [2]
  binding result: binds

B3: AGAMOUS element 1 CArG-box (A probe) (dsDNA)
DNA 1: ACTGAAGCTTTCCATTAATGGGAATGACGCACAATCCCAC
DNA 2: GTGGGATTGTGCGTCATTCCCATTAATGGAAAGCTTCAGT
MA-MADS5 D (MADS+I+K)
  binding result: binds
MA-MADS5 F (K+C)
  binding result: no binding
MA-MADS5 C (MADS+I)
  binding result: binds
MA-MADS5 G (C-terminal)
  binding result: no binding
MA-MADS5 full length (A) [1]; label: 32P
  binding result: binds
MA-MADS5 E (I+K+C)
  binding result: no binding
[3]
  binding result: binds
[4]
  binding result: binds
[5]
  binding result: binds

B4: AGAMOUS element m1 (Am probe, CArGm) (dsDNA)
DNA 1: B3 DNA 1 with T16G, A17C
DNA 2: B3 DNA 2 with T24G, A25C
MA-MADS5 full length (A) [1]; label: 32P or unlabeled
  binding result: no binding

B5: CArG motif 6 (MA-ACO1) (dsDNA)
DNA 1: GAACGCCTATAAATTGCCTGGT
DNA 2: ACCAGGCAATTTATAGGCGTTC
MA-MADS5 full length (A) [1]; label: 32P 5' end
  binding result: no binding

B6: CArG motif 4 (MA-ACS1) (dsDNA)
DNA 1: GATCATGCTTTTATTGTTTCTT
DNA 2: AAGAAACAATAAAAGCATGATC
MA-MADS5 full length (A) [1]; label: 32P 5' end
  binding result: no binding

B7: CArG motif 8 (MA-LEC) (dsDNA)
DNA 1: CTGGTATCTATTTATGAAATCT
DNA 2: AGATTTCATAAATAGATACCAG
MA-MADS5 full length (A) [1]; label: 32P 5' end
  binding result: binds

B8: CArG motif 2 (MA-ACS1) (dsDNA)
DNA 1: ACACCCCATAAATTTGATCTTC
DNA 2: GAAGATCAAATTTATGGGGTGT
MA-MADS5 full length (A) [1]; label: 32P 5' end
  binding result: binds

B9: CArG motif 7 (MA-EXP) (dsDNA)
DNA 1: AAGCACGCATATTTGTGCTGCA
DNA 2: TGCAGCACAAATATGCGTGCTT
MA-MADS5 full length (A) [1]; label: 32P 5' end
  binding result: binds

B10: CArG motif 9 (MA-LEC) (dsDNA)
DNA 1: ATAAATTCTTAAAAGATCCTAG
DNA 2: CTAGGATCTTTTAAGAATTTAT
MA-MADS5 full length (A) [1]; label: 32P 5' end
  binding result: no binding

B11: CArG motif 3 (MA-ACS1) (dsDNA)
DNA 1: GGGTCAACTATAATTGCCTTCC
DNA 2: GGAAGGCAATTATAGTTGACCC
MA-MADS5 full length (A) [1]; label: 32P 5' end
  binding result: no binding

Reference: paper PMC3439491, “Characterization of an AGAMOUS-like MADS Box Protein, a Probable Constituent of Flowering and Fruit Ripening Regulatory System in Banana”
